Reference: patent publication US20240287489A1, “CHITINOLYTIC ENZYME-BASED PLANT PROTECTION AGENTS” (GLOBACHEM NV, priority 2021, published 2024)

Key:
[1] = test system: Fusarium culmorum; assay: Minimum inhibitory concentration (MIC) test on fungal pathogens; format: cell-based
Procedure: The start concentration of each chitinase used in minimum inhibitory concentration (MIC) tests was 100 μg/ml.
The chitinases were further tested for their protective activity in germination tests. Briefly, the following steps were conducted: • 1. Disinfection of wheat seeds in 10% bleach for 10 minutes in a biosafety cabinet • 2. Germination on filter paper • 3. Foliar application 3 dps (days post seeding) and 1 dbi (day before infection) • 4. 4 dps: add pathogen Fusarium culmorum • 5. Monitoring germination and plant health/phytotox

[2] = test system: corn (maize), rice, barley; assay: Protection of plants against abiotic stress (drought, flooding, salt, frost); format: in vivo, pear, cherry; details: foliar and/or seed application
Description: FIGS. 18A-18E. Use of chitinase 1 as plant protection agent against abiotic stresses. Plant length (PL) FIG. 18A: after foliar application on corn in presence of drought or flooding stress; FIG. 18B: after foliar, seed or foliar+seed application on corn in presence of drought stress; FIG. 18C: after foliar application on rice in presence of salt stress; FIG. 18D: after foliar application on corn in presence of salt stress; FIG. 18E: after seed application on barley in presence of drought stress.
FIGS. 19A-19B. Use of chitinase 1 as plant protection agent against abiotic stresses. Yield FIG. 19A: of pears after foliar application in presence of frost stress; FIG. 19B: of cherries after foliar application in presence of frost stress.
Chitinase 1 was tested for protective effects against abiotic stress. Abiotic stresses tested were drought, flooding, salt, or frost stress. Plants tested were: corn (maize), rice, barley, pear and […]. Test conditions were as follows:
• plants are drilled in trays • germination at 25° C./15° C. (day/night) light 16 h, dark 8 h • application 10 days later • 2 days later replanted in pots of 8×8 cm • 3 possible regimes • no water • every day water with flooding system • continuous water
• plants are drilled in trays • germination at 25° C./15° C. […]

[3] = Chitinase mixture design, conversion rate of chitin powder (reducing end assay); format: biochemical; details: 2 μM Factor A
Procedure: All five chitinases implemented in the DoE originated from a novel marine Photobacterium strain expressing these enzymes to carry out a conversion of crystalline chitin to monomeric and dimeric polysaccharides. All chitinases were produced recombinantly using E. coli BL21 (DE3) and characterized regarding optimum reaction conditions and product properties in Example 2. As so far only singular enzyme reactions were carried out, the DoE approach was used to 1) determine ideal enzyme combinations to maximize product rates 2) identify possible enzyme combinations to alter product distribution in terms of DP. […] The amount of released reducing sugars from the enzymatic degradation was quantified by the reducing end assay and used as a primary response.
The optimization function in Design Expert was used to model enzyme mixtures to maximize the overall conversion rate of chitin to oligomeric chitin mixtures. Three mixture solutions for maximized chitin (S1-83 Max) oligomer rates were tested and quantitative data was compared to the values predicted by the model. […]
Enzymatic activity of recombinant chitinases was determined by carrying out a reducing end assay [J., H., Svein, E., and H., V. G., Carbohydr Polym, 2004. […] Samples were cooled down to room temperature and absorption was determined at 620 nm. […]

[4] = Substrate conversion yield from residue substrate after the reaction; format: biochemical; details: residue substrate after the reaction relative to the starting material
Procedure: The overall substrate conversion yield was determined for all maximized solutions after determining the residue substrate after the reaction, relative to the starting material.

[5] = test system: Fusarium culmorum; format: in vivo; details: wheat, foliar application 3 dps, F. culmorum added 4 dps
[6] = test system: D. melanogaster eggs; assay: Larvae survival after treatment of D. melanogaster eggs; format: in vivo; details: chitinase concentrations from 10% to 0.1%
Procedure: The effects of chitinases on insects was tested on D. melanogaster eggs. Briefly, eggs were treated with chitinase 1 or a control, and larvae survival was assessed 3 days after treatment (DAT). Results for chitinase concentrations of concentration from 10% to 0.1% were as follows: […]

B1: Chitinase 1: chitinolytic enzyme from P. orarium, SEQ ID NO: 1, recombinant with PelB signal peptide and 6×His tag; run 19 = 2 μM alone (protein, listed as Photobacterium orarium)
chain: MAAPGTPQIAWMETDYAIVEVDQAASAYKSLITVKPAAEVPVAWQRYSGETADLWKVKLNGNVVFEQSIAPASSGAGSTTLSVAQGGQYAMTVELCSGTGAAQACTSSAATNIVVADTDGSHLDPLPMNVDANNGNYTTPANTVVGAYFVEWGVYGRKFSVDNIPAQNLTHILYGFIPICGPNESLGEIENGNSLAALNRACQGTPDYEVVIHDPWAAVQMPQPQSGHTHSTPYKGTYGQMMALKQRYPDLKIVPSVGGWTLSDPFYSFTDKAKRDIFVASVKKFLKTWKFFDGVDIDWEFPGGKGANANLGDPVNDGPAYVALMRELRVMLDELEAETGRQYELTSAIGVGYDKIDVVNYADAVQYMDYIFAMTYDFFGGWNNVPGHQTALFCGSHMSADVCNGTGVDENGVPRQGPAYTAAHGIDRLLAQGVPANKLVLGTAMYARGWTGVTEASMTDPTNPMTGTGNGMVPGSWEPGVIDYKDVVTDYINNAAVTKGYDAQAEAPWAYNPSNGNLITYDDRRSVLAKGQYVRNLGLAGLFAWEIDADNGDILNAMQDSLAGGGGNYAPVAKAGADQVVNGAASVTLDGSASSDRDGQIVSYQWTQTSGPALTLTGSDTATATVAVPEVTADTQYAFTLTVTDNAGDTATDSVTVTAKAPGSNTAPVVAVSGPATASAGDTVVLDASQSSDADGDTLTFTWTVPAGVNATVNGATVSFVADSYTVDTPLNFTVAVSDGTDSVTESVTVTVLKDGGSTGCTNAWATGGVYNSGDIVTHSGKSWKAKWWTTGEEPGTTGEWGVWEDLGAANCQIE
modifications: PelB signal peptide; 6xHis tag; Chitinase 1
notes: run 19 = 2 μM alone
With B1 the “inhibition of Fusarium culmorum in the MIC assay” value [1] was “showed inhibition”, the “protection from abiotic stress (plant length, fruit yield)” value [2] was “protects the plants from different abiotic stresses” and the “conversion rate (highest of the design runs)” value [3] was 502 nmol/mL/h. For the same molecule, the substrate conversion yield [4] was 18.3±0.5%, the “fungal growth in germination test” value [5] was “strong inhibition of fungal growth” and the “plant health in germination test” value ([5]; compared to the control) was “improved plant health”. For the same molecule, the “% mortality” value ([6]; 3 days after treatment, control 25) was 36% and the “% survival” value ([6]; larvae survival 3 days after treatment, control 75) was 64%.
